Columns and labels:
[1] = biological target: HPV18 L2 in HPV18 pseudovirions (human papillomavirus 18 (HPV18)) (UniProt P06793)
[2] = biological target: HPV16 L2 in HPV16 L1/L2 capsids (pseudovirions, L1/L2 VLPs) (human papillomavirus 16 (HPV16)) (UniProt P03107)
[3] = biological target: full length HPV16 L2 protein (ELISA and Western blot antigen) (human papillomavirus 16 (HPV16)) (UniProt P03107); experiment: L2 protein ELISA, undiluted hybridoma supernatant
[4] = biological target: HPV16 L2 in HPV16 L1/L2 capsids (pseudovirions, L1/L2 VLPs) (human papillomavirus 16 (HPV16)) (UniProt P03107); experiment: HPV16 L1/L2 VLP ELISA
[5] = biological target: HPV16 L2 in HPV16 L1/L2 capsids (pseudovirions, L1/L2 VLPs) (human papillomavirus 16 (HPV16)) (UniProt P03107); remark: listed apart in the source
[6] = biological target: HPV16 L2 in HPV16 L1/L2 capsids (pseudovirions, L1/L2 VLPs) (human papillomavirus 16 (HPV16)) (UniProt P03107); experiment: HPV16 L1/L2 VLP ELISA, undiluted hybridoma supernatant

## RG-1 (antibody)
[1]
  neutralization of HPV18 pseudovirions, RG-1 ascites (titer (1:x dilution)): 25600
[2]
  neutralization of HPV16 pseudovirions, RG-1 ascites (titer (1:x dilution)): 205000
[3]
  OD405 L2 ELISA: 1.3 OD405
[4]
  ELISA titer (titer (1:x dilution)): 1.02e+06
[5]
  HPV16 neutralization (undiluted hybridoma supernatant titrated) (titer (1:x dilution)): 1280
[6]
  OD405 L1/L2 ELISA: 0.9 OD405

Reference: patent publication US20090047301A1
